According to patent publication US20240360203A1:

Target: SARS-CoV-2 BA.4/5+K444T Spike on pseudovirus (SARS-CoV-2), P0DTC2
Assay: cell-based or functional assay

B1: AB-1 (antibody, V domains shown)
VH: EVQLVESGAEVKKPGESLKISCKGSGYTFTRYWIGWVRQMPGKGLEWMGIIYPGDSDVRYSPSFQGHVTISADKSISTAYLQWNSLKASDTAMYYCARLPQYCSKGVCYRWFDPWGQGTLVTVSS
VL: EIVLTQSPSSVSASVGDRVTITCRASQGISSWLAWYQQKPGKAPKLLIYAASSLQSGVPSRFSGSGSGTDFTLTISSLQPEDFATYYCQQGHSFPYTFGQGTNLEIK
B1 showed an IC50, pseudovirus neutralization of 9.4 ng/mL.
